Measurements as given in US20240400701A1 (LANOVA MEDICINES DEVELOPMENT, published 2024).
Changes are numbered by the printed parent chain. Numbers in names are those of the source.

T1: human AMHRII (anti-Mullerian hormone receptor type 2) (human, UniProt Q16671 18-573)
T1 construct: whole, on cells; also called AMHR2; human AMHR2
T1 sequence (looked up): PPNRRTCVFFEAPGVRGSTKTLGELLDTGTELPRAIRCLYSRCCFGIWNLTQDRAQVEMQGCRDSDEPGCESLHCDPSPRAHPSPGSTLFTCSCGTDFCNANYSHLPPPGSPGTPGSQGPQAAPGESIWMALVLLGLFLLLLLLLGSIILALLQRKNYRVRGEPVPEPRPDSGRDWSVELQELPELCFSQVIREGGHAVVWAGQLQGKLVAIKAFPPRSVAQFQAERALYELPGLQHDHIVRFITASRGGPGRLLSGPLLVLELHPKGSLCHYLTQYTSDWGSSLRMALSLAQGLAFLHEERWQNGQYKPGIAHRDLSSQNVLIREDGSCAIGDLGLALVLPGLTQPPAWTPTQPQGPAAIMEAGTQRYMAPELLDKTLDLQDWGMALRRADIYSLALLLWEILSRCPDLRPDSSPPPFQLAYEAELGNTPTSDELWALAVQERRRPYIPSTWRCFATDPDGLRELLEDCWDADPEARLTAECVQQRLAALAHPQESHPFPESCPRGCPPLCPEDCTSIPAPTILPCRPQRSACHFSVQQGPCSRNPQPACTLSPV

B1: 108F3D1E9 H2L2 hIgG1 (antibody, V domains shown)
VH: QLQLQESGPGLVKPSETLSLTCTVSGYSITSDFAWNWIRQPPGKGLEWMGYISFSGSTSYNPSLKSRVTISRDTSKNQFSLKLSSVTAADTAVYYCAGSRYSWFAYWGQGTLVTVSS
VL: DIQLTQSPSSLSASVGDRVTITCRASESVDTYGNSFMHWYQQKPGKPPKLLIYRASNLESGIPSRFSGSGSGTDFTLTISSLQPEDFATYYCQQSNEDPYTFGGGTKVEIK
notes: Humanized, human IgG1; also called 108F3D1E9 H2L2 hlgG1
B2: 94C4C3 H2L2 hIgG1 (antibody, V domains shown)
VH: B1 VH with F33Y, F54Y, T58I, V68I, G98R, A105D
VL: EIVLTQSPGTLSLSPGERATLSCSASESVDTYGNSFMHWYQQKPGQPPRLLIYRASSLESGIPVRFSGSGSRTDFTLTISRLEPEDFAVYYCQQSNEDPYTFGGGTKVEIK
notes: Humanized, human IgG1; also called 94C4C3 H2L2 hlgG1
B3: 108F3D1E9 H2L1 hIgG1 (antibody, V domains shown)
VH: B1 VH
VL: B1 VL with L4M, P47A, I62V
notes: Humanized, human IgG1; also called 108F3D1E9 H2L1 hlgG1
B4: 108F3D1E9 H1L4 hIgG1 (antibody, V domains shown)
VH: B1 VH with M49I, R72V, G98R
VL: B1 VL with Q3V, A13V, V19A, K46Q, S64A, G72R, L82V, V108L
notes: Humanized, human IgG1; also called 108F3D1E9 H1L4 hlgG1
B5: 108F3D1E9 H2L4 hIgG1 (antibody, V domains shown)
VH: B1 VH
VL: B1 VL with Q3V, A13V, V19A, K46Q, S64A, G72R, L82V, V108L
notes: Humanized, human IgG1; also called 108F3D1E9 H2L4 hlgG1
B6: 108F3D1E9 H2L3 hIgG1 (antibody, V domains shown)
VH: B1 VH
VL: B1 VL with Q3V, K46Q, S64A, L82V
notes: Humanized, human IgG1; also called 108F3D1E9 H2L3 hlgG1
B7: 108F3D1E9 H1L2 hIgG1 (antibody, V domains shown)
VH: B1 VH with M49I, R72V, G98R
VL: B1 VL
notes: Humanized, human IgG1; also called 108F3D1E9 H1L2 hlgG1
B8: 108F3D1E9 H1L3 hIgG1 (antibody, V domains shown)
VH: B1 VH with M49I, R72V, G98R
VL: B1 VL with Q3V, K46Q, S64A, L82V
notes: Humanized, human IgG1; also called 108F3D1E9 H1L3 hlgG1
B9: 31D9B3 VH1-VL2.1 hIgG1 (antibody, V domains shown)
VH: QVQLVQSGAEVKKPGASVKVSCKASGYTFTDYWVSWVRQAPGQGLEWMGEIYPKNGVSNFNEKFKGRVTMTTDTSTSTAYMELRSLRSDDTAVYYCARQRDYWGQGTLVTVSS
VL: DVVMTQSPLSLPVTLGQPASISCRSSQSLEYGSGYTYLEWYLQRPGQSPRLLIYGVSNRFSGVPDRFSGSGSGTDFTLKISRVEAEDVGVYYCFQATHDPNTFGQGTKLEIK
notes: Humanized, PTM de-risked (VL D(30C)S), human IgG1; also called 31D9B3 VH1-VL2.1 hlgG1
B10: 31D9B3 VH1.1-VL2.1 hIgG1 (antibody, V domains shown)
VH: B9 VH with N55E
VL: B9 VL
notes: Humanized, PTM de-risked, human IgG1; also called 31D9B3 VH1.1-VL2.1 hlgG1
B11: 31D9B3 VH1.1-VL2 hIgG1 (antibody, V domains shown)
VH: B9 VH with N55E
VL: B9 VL with S33D
notes: Humanized, PTM de-risked (VH N54E), human IgG1; also called 31D9B3 VH1.1-VL2 hlgG1
B12: 31D9B3 VH1.1-VL2.3 hIgG1 (antibody, V domains shown)
VH: B9 VH with N55E
VL: B9 VL with S33T
notes: Humanized, PTM de-risked, human IgG1; also called 31D9B3 VH1.1-VL2.3 hlgG1
B13: 31D9B3 VH1.1-VL2.2 hIgG1 (antibody, V domains shown)
VH: B9 VH with N55E
VL: B9 VL with S33D, G34R
notes: Humanized, PTM de-risked, human IgG1; also called 31D9B3 VH1.1-VL2.2 hlgG1
B14: 31D9B3 VH1-VL2.3 hIgG1 (antibody, V domains shown)
VH: B9 VH
VL: B9 VL with S33T
notes: Humanized, PTM de-risked (VL D(30C)T), human IgG1; also called 31D9B3 VH1-VL2.3 hlgG1

Biological target: T1, human AMHRII (anti-Mullerian hormone …)
Test: FACS on CHO-K1 cells over-expressing human AMHR2
Experimental: CHO-K1 cells over-expressed AMHR2 were harvested from flasks. 100 μl of 1×10⁶ cells/ml of cells were incubated with the humanized antibodies in 3-fold serial dilutions starting from 300 nM to 0.001 nM for 30 minutes on ice. After being washed with 200 μl of FACS buffer twice, cells were incubated with secondary antibody for 30 minutes on ice. Cells were washed with 200 μl of FACS buffer twice and analyzed by FACS.

Row | EC50 [nM] | Top (MFI) | Binder
1 | 0.68 | 67900 | B1
2 | 1.42 | 56600 | B2
3 | 0.55 | 64400 | B3
4 | 0.88 | 70900 | B4
5 | 0.65 | 70600 | B5
6 | 0.74 | 67300 | B6
7 | 0.82 | 64600 | B7
8 | 0.82 | 66700 | B8
9 | 5.52 | 10400 | B9
10 | 89.7 | 2170 | B10
11 | 0.875 | 16800 | B11
12 | 145 | 6580 | B12
13 | 0.625 | 14500 | B13
14 | 0.331 | 12500 | B14
